Assay results as given in patent US20230312758A1, “BISPECIFIC ANTIBODY AGAINST CD3 AND CD20 IN COMBINATION THERAPY FOR TREATING FOLLICULAR LYMPHOMA” (GENMAB A/S, priority 2020, published 2023).

What was measured:
[1] = test system: follicular lymphoma; conditions: double-refractory cases; cited from earlier work
[2] = test system: T cells; test: T-cell activation with immobilized anti-CD3 in presence or absence of lenalidomide; type: cell-based; conditions: 5 or 50 μM lenalidomide, CD3 crosslinking, 3 days; compared to no lenalidomide
Experimental: T cells were pre-incubated with assay medium or lenalidomide in the absence or presence of CD3 crosslinking by immobilized anti-CD3 for 3 days (as indicated on the x-axes), after which upregulation of CD69, CD25, PD-1 and LAMP-1 on CD4^+ and CD8^+ T cells was determined by flow cytometry. Data shown are geomean fluorescence intensities (FI) for four donors (each circle represents one condition for one donor). Pre-incubation conditions are shown on the x-axis.
(§1) This experiment was performed to determine the impact of lenalidomide on Duobody-CD3xCD20-induced T-cell activation and T-cell-mediated cytotoxicity.
(§2) Briefly, T cells were activated with immobilized anti-CD3 in the presence (5 or 50 μM) or absence of lenalidomide for 3 days. […] T cells that were activated in the presence or absence of lenalidomide were subsequently tested for their cytotoxic capacity in response to epcoritamab.

[3] = target: T1, CD20 (Homo sapiens, UniProt P11836); conditions: rituximab versus IgG1-CD20; bind to a different epitope; cited from earlier work
T1 sequence (P11836 1-297): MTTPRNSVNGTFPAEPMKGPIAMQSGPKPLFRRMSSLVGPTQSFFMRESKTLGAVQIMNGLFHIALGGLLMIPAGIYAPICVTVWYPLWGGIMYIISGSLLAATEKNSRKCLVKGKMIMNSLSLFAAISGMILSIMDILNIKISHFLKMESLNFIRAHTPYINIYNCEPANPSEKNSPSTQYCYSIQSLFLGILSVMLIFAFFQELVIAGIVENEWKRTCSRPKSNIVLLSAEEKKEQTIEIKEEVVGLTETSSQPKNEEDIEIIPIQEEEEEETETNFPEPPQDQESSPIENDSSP

[4] = test system: CD20-expressing Raji-luc tumor cells; conditions: NOD-SCID mice injected with Raji-luc tumor cells and PBMCs; even in presence of excess IgG1-RTX-FEAR; cited from earlier work
[5] = test system: CD20-expressing Daudi cells; test: DuoBody-CD3xCD20-induced T-cell-mediated cytotoxicity assay; type: cell-based; conditions: T cells pre-treated with lenalidomide and anti-CD3; E:T ratio 2:1
Experimental: T cells were incubated with (5 or 50 μM) or without lenalidomide in the absence or presence of immobilized anti-CD3 for 3 days. T cells were then used in a cytotoxicity assay with DuoBody-CD3xCD20 or DuoBody-CD3xctrl (containing a CD3 arm and a non-binding control arm) and CD20-expressing Daudi cells as target cells (E:T ratio 2:1). Data shown are average percentages cytotoxicity ±SD of duplicates, normalized to medium control (no antibody, no lenalidomide).
as §1, §2

[6] = test system: primary DLBCL and follicular lymphoma patient biopsies; conditions: cited from earlier work
[7] = test system: R/R B-NHL; test: epcoritamab monotherapy clinical trial (NCT03625037); type: in vivo, human; conditions: R/R B-NHL patients, preliminary data
Source text: Epcoritamab as monotherapy is currently in a clinical trial for the treatment of R/R B-NHL (ClinicalTrials.gov Identifier: NCT03625037).

[8] = test system: R/R follicular lymphoma; test: Phase 1b study of epcoritamab with rituximab and lenalidomide (R^2); type: in vivo, human; conditions: preliminary data
Experimental: The trial is conducted in 2 parts: dose escalation (Part 1) and expansion (Part 2). Subjects participate in only one part. Both parts consist of a screening period, a treatment period, a safety follow-up period, and a survival follow-up period.
The Part 1 dose escalation assesses the initial safety, tolerability, and clinical activity of epcoritamab in combination with R^2. Epcoritamab is initially be administered in combination with R^2 in a 3-subject cohort. DLTs are evaluated during the first 28 days. […]
In Part 2, epcoritamab is administered (with the dosing regimen determined in the dose escalation part) in combination with R^2. […]
Disease response is assessed according to both Lugano criteria (described in Cheson et al., J Clin Oncol 2014; 32:3059-68 (see, in particular, Table 3 in Cheson et al., 2014) and LYRIC (Table 8) to inform decisions on continuation of treatment. […]
Safety is assessed by measuring adverse events, laboratory test results, ECGs, vital sign measurements, physical examination findings, and ECOG performance status. Also assessed are immune effector cell-associated neurotoxicity syndrome (e.g., as described by Lee et al., Biol BloodMarrow Transplant 2019; 25:625-638), constitutional symptoms (B symptoms), tumor flare reaction, and survival. […]

In the case of `CC[C@H](Nc1ncnc2[nH]cnc12)c1nc2cccc(F)c2c(=O)n1-c1ccccc1` [idelalisib], the “1-year PFS” value [1] is given as 43% and the toxicities [1] is given as “several toxicities leading to treatment discontinuation”.
In the case of `Nc1cccc2c1CN(C1CCC(=O)NC1=O)C2=O` (centres unmarked) [lenalidomide, 3-(4-Amino-1-oxo-1,3-dihydro-2H-isoindol-2-yl) piperidine-2,6-dione], the “T-cell activation (CD69, CD25 upregulation, release of granzyme B and IFNγ)” value [2] is reported as “increased T-cell activation”.
For “IgG1-CD20: antibody of which the CD20 arm of epcoritamab is derived”, the “competition for CD20 binding” value [3] is given as “compete for CD20 binding”.
In the case of “epcoritamab: IgG1 bispecific CD3xCD20 antibody; heavy/light chain pairs SEQ ID NOs: 24/25 and 26/27; CAS 2134641-34-0”, the tumor growth [4] is listed as “effectively reduce tumor growth”, the “cytotoxicity (dose response)” value [5] is listed as “Higher maximum percent cytotoxicity and higher activity at lower epcoritamab concentrations” and the tumor cell kill ([6]; biopsy taken 2 weeks after administering the anti-CD20 antibody) is listed as “up to 40%”. The T-cell-mediated cytotoxicity [6] was “induced T-cell-mediated cytotoxicity”, the tolerated dose ([7]; including 60 mg) was “at least 48 mg” and the dose-limiting toxicities [7] was “no dose-limiting toxicities reported”. For the same compound, the “incidence of CRS compared with single-agent epcoritamab” value [8] was “relatively lower incidence of CRS with the combination”.
